What was measured:
[1] = molecular target: RNF167-ECD (transmembrane PA-TM-RING E3 ligase RNF167, extracellular domain) (human) (UniProt Q9H6Y7); test: SPR; Biacore T100; biotinylated ligand captured on a streptavidin (SA) Series S chip (~100-200 RU); non-biotinylated analyte in twofold dilutions in HBS-P+; 60 s injection at 30 ul/min, 240 s dissociation; regeneration 2 x 10 sec 2M MgCl2; KD from the fit at equilibrium (steady state)
human PTPRU-ECD [2] = molecular target: T1, human PTPRU-ECD (human, UniProt Q92729 19-749, biotin where captured on the streptavidin chip); test: SPR
T1 chain: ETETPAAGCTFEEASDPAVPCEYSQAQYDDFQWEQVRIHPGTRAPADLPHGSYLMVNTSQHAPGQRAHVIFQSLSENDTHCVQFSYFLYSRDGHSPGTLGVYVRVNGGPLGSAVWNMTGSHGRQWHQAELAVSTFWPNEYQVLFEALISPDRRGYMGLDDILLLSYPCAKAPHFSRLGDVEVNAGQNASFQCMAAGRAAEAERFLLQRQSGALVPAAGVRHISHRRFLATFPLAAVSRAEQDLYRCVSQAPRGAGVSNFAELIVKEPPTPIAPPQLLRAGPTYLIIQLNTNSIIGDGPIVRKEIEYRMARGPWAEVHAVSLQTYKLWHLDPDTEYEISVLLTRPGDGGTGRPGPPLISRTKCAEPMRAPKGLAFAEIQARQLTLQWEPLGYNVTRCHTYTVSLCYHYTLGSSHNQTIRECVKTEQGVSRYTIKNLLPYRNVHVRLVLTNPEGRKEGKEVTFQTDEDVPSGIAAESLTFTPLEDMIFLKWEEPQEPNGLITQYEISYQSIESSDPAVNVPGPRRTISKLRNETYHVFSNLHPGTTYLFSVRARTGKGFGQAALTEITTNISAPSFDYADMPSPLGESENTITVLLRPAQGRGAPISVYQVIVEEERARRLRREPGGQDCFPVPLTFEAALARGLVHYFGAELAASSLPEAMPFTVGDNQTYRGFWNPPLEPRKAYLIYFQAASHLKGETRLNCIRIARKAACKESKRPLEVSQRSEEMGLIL

PTPRF ECD = molecular target: T2, PTPRF ECD (human, UniProt P10586 30-1263, biotin where captured on the streptavidin chip); test: SPR; Biacore T100; biotinylated secreted ligand (OMG, PTN or MDK) captured on a streptavidin chip, receptor ECD as analyte; HBS-P+ buffer; settings: both partners purified
T2 construct: PTPRF, human, extracellular domain; construct of the ECD is not described; also called PRPRF; source: Expi293F, purified (Ni-NTA, SEC)

PTPRS ECD = molecular target: T3, PTPRS ECD (human, UniProt Q13332 30-1282, biotin where captured on the streptavidin chip); test: as above; settings: both partners purified
T3 construct: PTPRS, human, extracellular domain; construct of the ECD is not described; source: Expi293F, purified (Ni-NTA, SEC)
T3 sequence (looked up): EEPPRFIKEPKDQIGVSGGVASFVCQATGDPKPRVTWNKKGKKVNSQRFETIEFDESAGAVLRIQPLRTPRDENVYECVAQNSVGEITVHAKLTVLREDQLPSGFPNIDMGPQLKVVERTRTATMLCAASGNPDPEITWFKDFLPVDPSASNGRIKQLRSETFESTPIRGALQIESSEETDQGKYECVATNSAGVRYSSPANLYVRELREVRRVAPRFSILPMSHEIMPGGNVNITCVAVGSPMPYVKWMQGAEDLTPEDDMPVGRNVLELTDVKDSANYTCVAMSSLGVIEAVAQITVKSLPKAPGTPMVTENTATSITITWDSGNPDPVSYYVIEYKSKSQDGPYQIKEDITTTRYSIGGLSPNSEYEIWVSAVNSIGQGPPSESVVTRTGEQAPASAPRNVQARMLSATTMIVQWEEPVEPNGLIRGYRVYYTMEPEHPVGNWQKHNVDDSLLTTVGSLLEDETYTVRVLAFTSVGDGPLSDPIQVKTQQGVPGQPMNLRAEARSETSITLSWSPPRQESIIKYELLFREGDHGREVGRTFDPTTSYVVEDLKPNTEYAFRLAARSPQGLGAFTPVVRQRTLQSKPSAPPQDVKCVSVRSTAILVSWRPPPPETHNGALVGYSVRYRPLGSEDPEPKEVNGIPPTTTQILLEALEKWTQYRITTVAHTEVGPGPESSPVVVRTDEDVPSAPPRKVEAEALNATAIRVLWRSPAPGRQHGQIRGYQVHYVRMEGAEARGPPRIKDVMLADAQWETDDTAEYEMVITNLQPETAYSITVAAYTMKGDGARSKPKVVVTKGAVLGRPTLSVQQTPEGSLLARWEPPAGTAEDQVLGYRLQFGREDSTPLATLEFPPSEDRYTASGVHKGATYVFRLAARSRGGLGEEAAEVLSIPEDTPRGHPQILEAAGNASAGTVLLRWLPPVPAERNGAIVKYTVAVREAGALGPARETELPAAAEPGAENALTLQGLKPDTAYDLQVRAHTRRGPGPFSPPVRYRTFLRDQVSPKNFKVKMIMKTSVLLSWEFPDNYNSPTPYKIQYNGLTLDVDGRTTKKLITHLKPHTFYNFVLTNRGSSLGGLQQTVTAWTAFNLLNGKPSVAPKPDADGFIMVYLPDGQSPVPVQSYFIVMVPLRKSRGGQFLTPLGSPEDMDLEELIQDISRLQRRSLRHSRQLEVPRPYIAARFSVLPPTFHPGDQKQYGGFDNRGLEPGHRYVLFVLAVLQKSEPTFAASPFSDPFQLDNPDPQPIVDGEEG

PTPRD ECD = molecular target: T4, PTPRD ECD (human, UniProt P23468 21-1265, biotin where captured on the streptavidin chip); test: as above; settings: both partners purified
T4 construct: PTPRD, human, extracellular domain; construct of the ECD is not described; source: Expi293F, purified (Ni-NTA, SEC)

human PTPRU-ECD [3] = molecular target: T5, human PTPRU-ECD (human, UniProt Q92729 19-749, biotin where captured on the streptavidin chip); test: SPR; Biacore T100; biotinylated receptor ECD or hit protein captured on a streptavidin chip (~100-200 RU), non-biotinylated secreted ligand as analyte in twofold dilutions; HBS-P+ buffer; 1:1 Langmuir model or equilibrium fit; settings: both partners purified
T5 construct: PTPRU, human, extracellular domain; construct of the ECD is not described; source: Expi293F, purified (Ni-NTA, SEC)
T5 sequence (looked up): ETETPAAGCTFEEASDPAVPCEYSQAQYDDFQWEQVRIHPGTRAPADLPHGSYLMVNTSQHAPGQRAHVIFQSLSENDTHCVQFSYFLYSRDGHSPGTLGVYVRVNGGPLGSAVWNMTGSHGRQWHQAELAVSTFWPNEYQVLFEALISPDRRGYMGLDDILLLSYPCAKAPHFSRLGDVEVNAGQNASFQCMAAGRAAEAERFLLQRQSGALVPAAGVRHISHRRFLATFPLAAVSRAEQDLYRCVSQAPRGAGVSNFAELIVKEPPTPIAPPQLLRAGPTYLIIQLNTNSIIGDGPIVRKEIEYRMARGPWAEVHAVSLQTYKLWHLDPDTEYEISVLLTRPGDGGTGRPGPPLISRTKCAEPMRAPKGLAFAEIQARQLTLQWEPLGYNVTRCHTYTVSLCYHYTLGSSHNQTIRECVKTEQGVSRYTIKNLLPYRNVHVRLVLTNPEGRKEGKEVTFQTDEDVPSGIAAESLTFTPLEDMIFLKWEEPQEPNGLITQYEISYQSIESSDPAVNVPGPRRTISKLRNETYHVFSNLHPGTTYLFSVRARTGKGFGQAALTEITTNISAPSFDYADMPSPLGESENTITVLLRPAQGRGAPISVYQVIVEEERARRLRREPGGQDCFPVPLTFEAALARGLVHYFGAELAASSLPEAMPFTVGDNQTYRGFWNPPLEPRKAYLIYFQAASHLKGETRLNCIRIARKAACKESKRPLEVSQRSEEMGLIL

[4] = molecular target: T6, PTPRU-ECD (receptor protein tyrosine phosphatase U, extracellular domain) (human, UniProt Q92729 19-749, biotin (BirA biotinylation; captured on streptavidin chip)); test: SPR; Biacore T100; biotinylated ligand captured on a streptavidin (SA) Series S chip (~100-200 RU); non-biotinylated analyte in twofold dilutions in HBS-P+; 60 s injection at 30 ul/min, 240 s dissociation; regeneration 2 x 10 sec 2M MgCl2; kinetic fit with a 1:1 binding (Langmuir) model; settings: both partners purified
T6 construct: receptor-type protein tyrosine phosphatase U (PTPRU, R2B subfamily), human, extracellular domain; source: Expi293F, purified (Ni-NTA, SEC), biotinylated in vitro with BirA
T6 sequence (looked up): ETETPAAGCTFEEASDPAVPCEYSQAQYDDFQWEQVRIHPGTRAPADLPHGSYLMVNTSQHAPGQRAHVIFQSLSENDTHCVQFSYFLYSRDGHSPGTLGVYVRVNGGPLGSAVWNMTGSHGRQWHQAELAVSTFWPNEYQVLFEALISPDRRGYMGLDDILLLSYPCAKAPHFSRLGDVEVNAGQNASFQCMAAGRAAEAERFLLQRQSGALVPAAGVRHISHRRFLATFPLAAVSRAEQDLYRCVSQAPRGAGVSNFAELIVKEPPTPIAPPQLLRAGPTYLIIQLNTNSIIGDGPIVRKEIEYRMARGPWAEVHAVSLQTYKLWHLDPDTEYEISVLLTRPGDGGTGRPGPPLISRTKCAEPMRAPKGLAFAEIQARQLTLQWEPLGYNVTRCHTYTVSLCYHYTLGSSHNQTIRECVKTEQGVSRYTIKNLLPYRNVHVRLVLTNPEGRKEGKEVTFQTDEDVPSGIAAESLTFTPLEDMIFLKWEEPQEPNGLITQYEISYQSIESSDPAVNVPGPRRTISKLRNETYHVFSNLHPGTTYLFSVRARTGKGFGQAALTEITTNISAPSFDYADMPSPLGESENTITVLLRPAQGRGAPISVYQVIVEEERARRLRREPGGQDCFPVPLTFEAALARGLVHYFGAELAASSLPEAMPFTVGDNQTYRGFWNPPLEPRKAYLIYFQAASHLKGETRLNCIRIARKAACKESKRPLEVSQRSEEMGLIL

T4 sequence (P23468 21-1265): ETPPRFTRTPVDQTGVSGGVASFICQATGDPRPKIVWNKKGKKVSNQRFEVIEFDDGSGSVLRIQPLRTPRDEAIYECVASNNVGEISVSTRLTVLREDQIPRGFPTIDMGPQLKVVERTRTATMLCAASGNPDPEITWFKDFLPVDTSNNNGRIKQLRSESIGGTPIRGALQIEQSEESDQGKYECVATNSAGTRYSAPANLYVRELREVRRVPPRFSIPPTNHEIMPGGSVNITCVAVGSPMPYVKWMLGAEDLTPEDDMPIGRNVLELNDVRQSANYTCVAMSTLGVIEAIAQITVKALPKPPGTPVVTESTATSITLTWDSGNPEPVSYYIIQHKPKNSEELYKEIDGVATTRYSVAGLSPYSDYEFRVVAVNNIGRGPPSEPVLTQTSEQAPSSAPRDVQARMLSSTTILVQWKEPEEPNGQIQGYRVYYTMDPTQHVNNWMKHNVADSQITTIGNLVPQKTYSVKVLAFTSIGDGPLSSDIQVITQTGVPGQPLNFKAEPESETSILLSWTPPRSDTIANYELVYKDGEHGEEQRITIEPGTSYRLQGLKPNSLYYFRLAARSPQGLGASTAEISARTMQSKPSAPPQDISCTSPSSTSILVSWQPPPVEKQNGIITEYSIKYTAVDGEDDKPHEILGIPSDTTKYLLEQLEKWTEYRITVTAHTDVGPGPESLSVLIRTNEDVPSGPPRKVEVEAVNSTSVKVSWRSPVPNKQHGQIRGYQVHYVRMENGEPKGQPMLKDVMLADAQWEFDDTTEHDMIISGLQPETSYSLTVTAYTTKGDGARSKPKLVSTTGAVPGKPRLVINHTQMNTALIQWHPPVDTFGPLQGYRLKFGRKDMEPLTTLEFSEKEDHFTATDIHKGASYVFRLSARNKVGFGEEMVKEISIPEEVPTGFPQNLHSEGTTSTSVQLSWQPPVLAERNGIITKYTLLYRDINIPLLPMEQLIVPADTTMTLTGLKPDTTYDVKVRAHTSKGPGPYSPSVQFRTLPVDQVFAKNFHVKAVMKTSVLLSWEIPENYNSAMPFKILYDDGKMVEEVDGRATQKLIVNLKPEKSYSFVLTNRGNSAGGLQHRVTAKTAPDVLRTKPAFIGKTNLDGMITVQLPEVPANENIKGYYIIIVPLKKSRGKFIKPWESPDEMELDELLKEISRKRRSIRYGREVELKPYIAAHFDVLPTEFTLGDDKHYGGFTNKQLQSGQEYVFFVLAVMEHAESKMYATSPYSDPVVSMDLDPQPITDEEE

Work on “TAFA-2 (FAM19A2; chemokine-like family member 2) (from UniProt Q8N3H0 31-131) (ligand)” yielded a Kd [1] of 314000 nM.

B1: oligodendrocyte-myelin glycoprotein (ligand, human, UniProt P23515 25-417, looked up)
chain: ICPLQCICTERHRHVDCSGRNLSTLPSGLQENIIHLNLSYNHFTDLHNQLTQYTNLRTLDISNNRLESLPAHLPRSLWNMSAANNNIKLLDKSDTAYQWNLKYLDVSKNMLEKVVLIKNTLRSLEVLNLSSNKLWTVPTNMPSKLHIVDLSNNSLTQILPGTLINLTNLTHLYLHNNKFTFIPDQSFDQLFQLQEITLYNNRWSCDHKQNITYLLKWMMETKAHVIGTPCSTQISSLKEHNMYPTPSGFTSSLFTVSGMQTVDTINSLSVVTQPKVTKIPKQYRTKETTFGATLSKDTTFTSTDKAFVPYPEDTSTETINSHEAAAATLTIHLQDGMVTNTSLTSSTKSSPTPMTLSITSGMPNNFSEMPQQSTTLNLWREETTTNVKTPLPS
modifications: biotin (biotinylated in vitro with BirA) where used on beads or captured on the chip
notes: oligodendrocyte-myelin glycoprotein, human; also called OMG; source: Expi293F, purified (Ni-NTA, SEC); not shown: AviTag, C-terminal, kept
For B1, the koff (human PTPRU-ECD [2]) was 0.00042 s⁻¹, the binding result (PTPRF ECD) was “binds” and the binding result (PTPRS ECD) was “binds”. For the same molecule, the binding result (PTPRD ECD) was “binds” and the Kd (human PTPRU-ECD [3]) was ~70 nM.

B2: oligodendrocyte-myelin glycoprotein (OMG) (ligand, human, UniProt P23515 25-417, looked up)
chain: ICPLQCICTERHRHVDCSGRNLSTLPSGLQENIIHLNLSYNHFTDLHNQLTQYTNLRTLDISNNRLESLPAHLPRSLWNMSAANNNIKLLDKSDTAYQWNLKYLDVSKNMLEKVVLIKNTLRSLEVLNLSSNKLWTVPTNMPSKLHIVDLSNNSLTQILPGTLINLTNLTHLYLHNNKFTFIPDQSFDQLFQLQEITLYNNRWSCDHKQNITYLLKWMMETKAHVIGTPCSTQISSLKEHNMYPTPSGFTSSLFTVSGMQTVDTINSLSVVTQPKVTKIPKQYRTKETTFGATLSKDTTFTSTDKAFVPYPEDTSTETINSHEAAAATLTIHLQDGMVTNTSLTSSTKSSPTPMTLSITSGMPNNFSEMPQQSTTLNLWREETTTNVKTPLPS
notes: oligodendrocyte-myelin glycoprotein (OMG), human; source: Expi293F, purified (Ni-NTA, SEC), not biotinylated (SPR analyte)
Work on B2 yielded a Kd [4] of 70.6 nM, a koff [4] of 0.000472 s⁻¹ and a kon [4] of 6690 M⁻¹ s⁻¹.

From paper PMC9578707, “Identification of orphan ligand-receptor relationships using a cell-based CRISPRa enrichment screening platform” (eLife, 2022)
